Measured values published in publication PMC6100598, “Characterization of Small Molecules Inhibiting the Pro-Angiogenic Activity of the Zinc Finger Transcription Factor Vezf1” (Molecules : A Journal of Synthetic Chemistry and Natural …, 2018).
“And” between values parts separate entries of the source, which are not always exact repeats. Identical values can stand only once. Values belong to the molecule of their own block, whether it stands above or below them.

Assays:
[1] = target: T1, Vezf1 (His-Vezf1) (UniProt Q5SXC4); assay: EMSA; details: 20 mM Hepes pH 7.5, 10 mM MgCl2, 50 mM NaCl, 1 mM EDTA, 5 ng/uL poly dA.dT, 10 min at room temperature, 5% acrylamide gel in 0.5x TBE
T1 sequence: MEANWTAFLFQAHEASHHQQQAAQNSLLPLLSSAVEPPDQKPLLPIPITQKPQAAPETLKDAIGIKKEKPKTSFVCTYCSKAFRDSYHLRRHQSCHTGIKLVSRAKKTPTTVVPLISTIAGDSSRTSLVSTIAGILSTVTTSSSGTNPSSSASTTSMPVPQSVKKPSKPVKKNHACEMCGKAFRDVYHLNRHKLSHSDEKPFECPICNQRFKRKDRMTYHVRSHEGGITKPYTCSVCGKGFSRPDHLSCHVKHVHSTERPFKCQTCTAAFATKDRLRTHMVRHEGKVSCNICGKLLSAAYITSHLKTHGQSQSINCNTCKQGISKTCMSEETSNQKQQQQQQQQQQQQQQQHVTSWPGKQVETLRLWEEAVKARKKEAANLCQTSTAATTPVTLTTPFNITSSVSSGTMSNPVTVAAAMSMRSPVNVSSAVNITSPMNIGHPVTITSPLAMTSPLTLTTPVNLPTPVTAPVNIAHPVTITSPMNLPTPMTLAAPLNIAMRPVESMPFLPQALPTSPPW

[2] = target: T2, Vezf1 (recombinant His-Vezf1) (Mus musculus, UniProt Q5SXC4); assay: EMSA, inhibition of Vezf1 binding to […]-labelled DNA; details: 1 μM or 640 nM (Figure 5C) Vezf1, 25 nM 32P-DNA (HS4-FPIII site), 10 min pre-incubation, 10 mM MgCl2, Hepes 7.5, room temperature; also called effective blocking concentration
T2 construct: N-terminal His6 tag (pQE10), kept; E. coli XLBlue (MRF, T7); Ni-NTA; residue borders not given; native protein about 65 kDa, six C2H2 zinc fingers
T2 sequence (Q5SXC4 1-518): T1 sequence

[3] = target: T2, Vezf1 (recombinant His-Vezf1); assay: EMSA, single dose; details: 640 nM Vezf1, 25 nM 32P-DNA, 10 min pre-incubation; residual DNA binding, not per cent inhibition; value without compound not given

Molecule: AGGCGCGCCCCGGTCCGGCGCTCCCCCCGCATCCCCGAGCCGGGGCGCGCCT (double strand) [HS4-FPIII Vezf1 site duplex]
binding signal ([1]; 500 uM NSC1012, 640 nM Vezf1): 7.38 % DNA bound | binding signal ([1]; 500 uM T4 (503-1-83), 640 nM Vezf1, T4 effective at 20 uM (IC50)): 5.94 % DNA bound | binding signal ([1]; 500 uM T6 (503-1-71 in text; 501-1-71 in Fig 5B legend), 640 nM Vezf1): 5.92 % DNA bound | binding signal [1]: 22.6 % DNA bound and 38.5 % DNA bound | Kd ([1]; no inhibitor, 25 nM DNA, 50-1000 nM protein): 640 nM

Activity Concentration [2]: ~ 500 μM
Molecule: O=C(O)c1ccccc1NC(c1ccccc1)c1ccc2cccnc2c1O (centres unmarked) [compound 1, NSC1012]

% DNA Bound in EMSA (500 μM) [3]: 38.45%
Molecule: NC(=O)c1nnn(Cc2cc(Cl)c(C(=O)c3ccc(Cl)cc3)c(Cl)c2)c1N [compound 3, NSC609974]

% DNA Bound in EMSA (500 μM) [3]: 22.56%
Molecule: Cc1c(S(=O)(=O)O)ccc(N=Nc2c(O)c(C(=O)O)cc3ccccc23)c1Cl [compound 2, NSC16087]
